Here are results for two molecules from paper PMC3817407.

“And” between values parts separate entries of the source, which are not always exact repeats. Identical values can stand only once.

One test concerns the target T1, ECF37_2513.
T1 chain: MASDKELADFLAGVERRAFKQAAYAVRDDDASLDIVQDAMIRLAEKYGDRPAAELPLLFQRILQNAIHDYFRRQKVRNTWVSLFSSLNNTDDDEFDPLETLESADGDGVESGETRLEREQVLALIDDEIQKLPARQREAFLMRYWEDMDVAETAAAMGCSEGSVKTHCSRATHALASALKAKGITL

The target of the next test is T2, ECF25_1643.
T2 chain: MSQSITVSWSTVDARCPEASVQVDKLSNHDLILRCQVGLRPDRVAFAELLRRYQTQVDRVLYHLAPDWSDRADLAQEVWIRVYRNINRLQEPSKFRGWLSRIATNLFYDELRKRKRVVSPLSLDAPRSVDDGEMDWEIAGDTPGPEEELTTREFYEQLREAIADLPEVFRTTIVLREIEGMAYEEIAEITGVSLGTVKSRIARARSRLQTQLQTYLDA

The target in a further test is T3, ECF35_3582.
T3 chain: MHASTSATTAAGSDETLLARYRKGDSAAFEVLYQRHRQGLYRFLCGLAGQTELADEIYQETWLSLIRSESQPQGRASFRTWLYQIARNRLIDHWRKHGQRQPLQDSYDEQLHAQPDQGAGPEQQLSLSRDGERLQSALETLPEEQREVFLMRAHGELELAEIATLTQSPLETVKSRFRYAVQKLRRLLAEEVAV

In the next test the target is T4, ECF15_524.
T4 chain: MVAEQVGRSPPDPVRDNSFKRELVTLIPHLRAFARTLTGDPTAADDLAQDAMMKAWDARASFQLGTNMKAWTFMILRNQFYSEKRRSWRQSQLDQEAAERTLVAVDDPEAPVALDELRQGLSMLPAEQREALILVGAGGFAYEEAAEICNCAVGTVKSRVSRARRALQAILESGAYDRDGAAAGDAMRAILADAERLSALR

A further test has as its target T5, ECF22_1147.
T5 chain: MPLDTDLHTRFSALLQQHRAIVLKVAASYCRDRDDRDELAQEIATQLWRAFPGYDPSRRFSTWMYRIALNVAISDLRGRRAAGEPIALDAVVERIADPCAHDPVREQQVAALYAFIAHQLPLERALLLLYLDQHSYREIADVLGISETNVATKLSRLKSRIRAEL

The target of the next test is T6, ECF02_915.
T6 chain: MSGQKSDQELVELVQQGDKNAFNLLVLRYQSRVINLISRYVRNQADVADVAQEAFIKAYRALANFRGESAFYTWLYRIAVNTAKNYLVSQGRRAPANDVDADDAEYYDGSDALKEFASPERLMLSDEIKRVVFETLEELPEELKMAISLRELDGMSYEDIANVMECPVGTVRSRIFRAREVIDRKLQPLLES

The next test has as its target T7, ECF01_3473.
T7 chain: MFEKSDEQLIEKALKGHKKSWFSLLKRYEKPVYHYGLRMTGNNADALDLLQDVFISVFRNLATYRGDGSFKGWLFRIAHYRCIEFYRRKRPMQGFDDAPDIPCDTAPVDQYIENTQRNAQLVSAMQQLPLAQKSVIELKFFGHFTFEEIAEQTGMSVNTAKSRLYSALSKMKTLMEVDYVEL

For a further test, the target named is T8, ECF20_992.
T8 chain: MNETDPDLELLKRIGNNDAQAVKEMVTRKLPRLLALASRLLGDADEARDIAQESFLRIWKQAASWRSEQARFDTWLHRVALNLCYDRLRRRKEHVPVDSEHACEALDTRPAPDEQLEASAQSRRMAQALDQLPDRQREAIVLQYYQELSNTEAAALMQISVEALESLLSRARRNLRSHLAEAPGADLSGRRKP

In the next test the target is T9, ECF28_1088.
T9 chain: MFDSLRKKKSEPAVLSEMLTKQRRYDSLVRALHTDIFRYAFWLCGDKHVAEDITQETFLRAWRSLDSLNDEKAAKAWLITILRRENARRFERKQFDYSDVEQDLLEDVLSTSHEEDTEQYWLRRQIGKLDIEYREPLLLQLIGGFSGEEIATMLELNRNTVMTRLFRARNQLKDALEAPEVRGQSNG

A further test concerns the target T10, ECF03_1244.
T10 chain: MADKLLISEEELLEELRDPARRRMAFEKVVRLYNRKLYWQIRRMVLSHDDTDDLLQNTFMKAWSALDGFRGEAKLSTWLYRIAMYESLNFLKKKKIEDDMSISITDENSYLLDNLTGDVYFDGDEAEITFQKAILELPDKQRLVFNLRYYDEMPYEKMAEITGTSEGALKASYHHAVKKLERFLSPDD

Another test deals with T11, ECF25_1645.
T11 chain: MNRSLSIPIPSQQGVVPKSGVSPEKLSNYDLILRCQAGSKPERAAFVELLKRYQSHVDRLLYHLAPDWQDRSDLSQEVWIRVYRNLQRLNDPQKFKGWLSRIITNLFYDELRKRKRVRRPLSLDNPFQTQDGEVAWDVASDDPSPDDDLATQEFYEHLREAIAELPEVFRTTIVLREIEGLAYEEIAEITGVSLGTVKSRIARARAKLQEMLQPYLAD

The target in a further test is T12, ECF38_1322.
T12 chain: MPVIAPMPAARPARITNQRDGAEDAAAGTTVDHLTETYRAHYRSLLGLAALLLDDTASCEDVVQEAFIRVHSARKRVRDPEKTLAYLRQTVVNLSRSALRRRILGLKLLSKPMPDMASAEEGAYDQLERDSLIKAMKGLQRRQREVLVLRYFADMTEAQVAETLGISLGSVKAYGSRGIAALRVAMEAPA

In the next test the target is T13, ECF03_1198.
T13 chain: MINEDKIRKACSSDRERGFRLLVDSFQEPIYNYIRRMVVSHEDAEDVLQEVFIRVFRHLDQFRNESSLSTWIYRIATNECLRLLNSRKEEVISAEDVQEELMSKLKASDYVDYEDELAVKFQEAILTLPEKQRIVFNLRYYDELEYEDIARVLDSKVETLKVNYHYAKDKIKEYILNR

The next test deals with T14, ECF28_1040.
T14 chain: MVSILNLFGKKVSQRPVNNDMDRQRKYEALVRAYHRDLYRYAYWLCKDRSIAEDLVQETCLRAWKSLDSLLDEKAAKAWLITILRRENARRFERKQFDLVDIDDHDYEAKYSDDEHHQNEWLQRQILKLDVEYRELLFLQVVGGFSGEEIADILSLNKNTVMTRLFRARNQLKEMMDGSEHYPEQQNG

B1: AS37_2513 (protein)
chain: MSSAPATKEEVDFALKVRRALDERAASLPDATTDRLAAARRAALARKKPDAAIVLVPALAGSAGTLELRPPGEPRKSLARRLARAWPLALLLAGLIGIAYWEDMQRTAELADIDAAMLSDNLPLTAYLDHGFNAYLSHTH
As to B1, the fold repression was 13.5 in the test with ECF37_2513; 5.22 and 5.59 in the test with ECF25_1643; 2.62 with ECF35_3582; 4.06 with ECF15_524; 8.31 in the test with ECF22_1147; 2.67 with ECF02_915. The fold repression with ECF01_3473 came out at 6.84; with ECF20_992, 5.31; in the test with ECF28_1088, 3.31; with ECF03_1244, 3.44; with ECF25_1645 it was 3.92; in the test with ECF38_1322 it was 2.73. In addition, the fold repression in the test with ECF26_4464 worked out at 7.32; with ECF03_1198, 4.01; with ECF28_1040 it was 2.67.

B2: AS38_1322 (protein)
chain: MSDGNDARPDARDGHDPGSDARDGHDPGSHARDGHDPGAGPFDGHGPGSDAGDGDDAGPDARDGHGAPAGPAGREQRKHPHDTHDMHDTHDTHAGKGTVNHGPAAQGPDAPGADGPATDEAALRAMMQRAVREMEPSDGTLEHLRRAVPARRARKRQALVGAAAAALFLGTAVPALVHVSNATGAGADPSVAGNASQAQGGASQGKDPAGGQSGVAGTGDTPEDRDKADPKETPGGKEPGAATGAPPSGVPSASSPADVPACAPGSLGPAVASSAEPDSTGVVYGSFRVTNVSSDGCTVTGPGTVVTASLGAAEATRIGTARHAAGDAAAGLPDPSLETASLALAPGAAYEVQFAWVPSETCPTTGGTTGGGSGGPSPDPSPTADTTAAGGTSAGGGEAGPTTQLITEDGPAEGSVSVTYTPEGGSGSATATVSNACAGTVYWTGLLADSGSGA
With B2, the fold repression is 6.38 in the test with ECF37_2513; 4.12 and 4.01 in the test with ECF25_1643; 2.8 with ECF35_3582; 4.95 in the test with ECF15_524; 6.04 with ECF22_1147; 3.62 in the test with ECF02_915. Moreover, the fold repression with ECF01_3473 came to 4.19; with ECF20_992 it was 3.28; with ECF28_1088, 3.19; with ECF03_1244 it was 4.75; with ECF25_1645 it was 3.94; in the test with ECF38_1322 it was 54.2. Moreover, the fold repression with ECF26_4464 is 5.74; with ECF03_1198 it was 5.72; with ECF28_1040, 2.92.
